Experimental data reported in US20260125455A1 (CLEVELAND CLINIC FOUNDATION, published 2026).
Each block holds one binder with its values, some of them ahead of it.

How the values were obtained:
[1] = target: T1, human complement protein C6 (human, UniProt P13671 22-934); assay: ELISA, purified protein, anti-human IgG (Fab-specific) detection
T1 construct: also called human C6; C6 antigen
Description: The binding of the purified chimeric molecules, MoC601 HuG4K and MoC601 HuG1KFab, was also confirmed by ELISA, where the anti-human IgG (Fab-specific) secondary reagent was used. The control mouse antibody bound as previously (EC₅₀ 0.11 nM). The EC₅₀ for purified MoC601 HuG4K (0.27 nM) was similar to that obtained for the MoC601 HuG4K supernatant sample above. […] The EC₅₀ value for the Fab molecule (0.48 nM) was higher than for the antibody, which would be expected since the Fab is unable to bind bivalently to the antigen on the well. A C6-binding assay was also set up on the Octet RED384 instrument. […] However, MoC601 MoG1K could be stably loaded onto anti-mouse Fc (AMC) biosensors. Concentrations of the mouse and chimeric antibodies were adjusted to give similar levels of loading on to the AMC and […]

[2] = target: T1, human complement protein C6; assay: C6-binding ELISA, A650 nm; sample 'human serun' (human serum, 28 days at 37 C)
Description: (§1) For the serum stability assessment, samples of the purified candidate antibodies are normally incubated in mouse, human and cynomolgus serum at 37 C for 28 days and then tested in an antigen-binding ELISA. Since the anti-C6 antibodies are expected to bind to both human and cynomolgus C6 but not mouse C6, we anticipated that incubating in human or cynomolgus sera would reduce ELISA binding due to occupation of the antibody binding sites by C6 protein from the sera. Therefore, the chimeric and humanized antibodies were tested with human and mouse sera and with human sera from which the C6 protein has been depleted. […]
(§2) Binding ELISAs used Nunc Maxisorp 384-well plates, wells coated with C6, C5b,6 complex or C5 (Complement Technology Inc, TX) and goat anti-human IgG (Fab specific) peroxidase secondary antibodies (Sigma-Aldrich, A0293) for detection. For the thermal stability assay, IgG supernatants were diluted to their EC₈₀ concentration, incubated at different temperatures for 10 min and C6 binding measured by ELISA with the binding signal plotted against temperature. Kinetics of C6 binding were measured by capturing antibodies from supernatant samples using Protein G biosensors and performing a 20 min association step with 2.5 nM C6 and a 20 min dissociation step using the Octet RED96. […]

[3] = target: T1, human complement protein C6; assay: C6-binding ELISA, A650 nm; sample 'PBS' (28 days at 37 C)
Description: (§3) For the serum stability assessment, samples of the purified candidate antibodies are normally incubated in mouse, human and cynomolgus serum at 37 C for 28 days and then tested in an antigen-binding ELISA. Since the anti-C6 antibodies are expected to bind to both human and cynomolgus C6 but not mouse C6, we anticipated that incubating in human or cynomolgus sera would reduce ELISA binding due to occupation of the antibody binding sites by C6 protein from the sera. Therefore, the chimeric and humanized antibodies were tested with human and mouse sera and with human sera from which the C6 protein has been depleted. The C6-binding ELISA was then used to compare the binding abilities of the C601 antibodies that had been incubated in the 3 different sera to antibody samples that were incubated in PBS at 37 C or kept at 4 C (non-incubated).
(§4) The Uncle instrument (Unchained Labs) was used to monitor unfolding via intrinsic fluorescence and aggregation by static light scattering across a temperature gradient to obtain melting temperatures (Tₘ). […] Isoelectric points were determined by capillary isoelectric focusing using a PA800+ (Beckman Coulter). […]

[4] = target: T1, human complement protein C6; assay: ELISA, C6-coated wells, large-scale purified antibody
[5] = target: T1, human complement protein C6; assay: C6-binding ELISA, A650 nm; sample 'PBS, non-incubated' (kept at 4 C)
Description: (§5) The C6-binding ELISA was then used to compare the binding abilities of the C601 antibodies that had been incubated in the 3 different sera to antibody samples that were incubated in PBS at 37 C or kept at 4 C (non-incubated).
(§6) Binding ELISAs used Nunc Maxisorp 384-well plates, wells coated with C6, C5b,6 complex or C5 (Complement Technology Inc, TX) and goat anti-human IgG (Fab specific) peroxidase secondary antibodies (Sigma-Aldrich, A0293) for detection. For the thermal stability assay, IgG supernatants were diluted to their EC₈₀ concentration, incubated at different temperatures for 10 min and C6 binding measured by ELISA with the binding signal plotted against temperature. Kinetics of C6 binding were measured by capturing antibodies from supernatant samples using Protein G biosensors and performing a 20 min association step with 2.5 nM C6 and a 20 min dissociation step using the Octet RED96. […] Binding of C6 measured using a three-fold concentration series of C6 from 0.03 nM-25 nM and data were fitted using a 1:1 model in two independent experiments.
(§7) The Uncle instrument (Unchained Labs) was used to monitor unfolding via intrinsic fluorescence and aggregation by static light scattering across a temperature gradient to obtain melting temperatures (Tₘ). […] Isoelectric points were determined by capillary isoelectric focusing using a PA800+ (Beckman Coulter).

[6] = target: T1, human complement protein C6; assay: SPR (Biacore 8K)
Description: (§8) The kinetics of C6 binding was compared for the purified chimeric and lead humanized C601 using surface plasmon resonance (SPR, Biacore 8K). IgG were captured on a protein G sensor chip and binding of C6 measured using a three-fold concentration series of C6 from 0.03 nM-25 nM (FIG. 5). In a second experiment, a two-fold concentration series from 0.31 nM-20 nM C6 was used (FIG. 6). For all antibodies, binding of C6 occurred in a concentration-dependent manner and data could be fitted using a 1:1 model to calculate the association rate (kₒₙ), dissociation rates (kd) and affinity constant (KD). The kinetic data are shown in Table 5, which indicates only small differences between the parameters determined from the two independent experiments.
(§9) Binding ELISAs used Nunc Maxisorp 384-well plates, wells coated with C6, C5b,6 complex or C5 (Complement Technology Inc, TX) and goat anti-human IgG (Fab specific) peroxidase secondary antibodies (Sigma-Aldrich, A0293) for detection. For the thermal stability assay, IgG supernatants were diluted to their EC₈₀ concentration, incubated at different temperatures for 10 min and C6 binding measured by ELISA with the binding signal plotted against temperature. Kinetics of C6 binding were measured by capturing antibodies from supernatant samples using Protein G biosensors and performing a 20 min association step with 2.5 nM C6 and a 20 min dissociation step using the Octet RED96. Precise kinetic measurements were obtained by surface plasmon resonance (Biacore 8K, Cytiva). The IgG were captured on a protein G sensor chip. Binding of C6 measured using a three-fold concentration series of C6 from 0.03 nM-25 nM and data were fitted using a 1:1 model in two independent experiments.

[7] = target: T1, human complement protein C6; assay: SPR (Biacore 8K), IgG on protein G chip, C6 0.31-20 nM 2-fold series, 1:1 fit
Description: as §8

[8] = target: human complement protein C5 (human, UniProt P01031 19-673; P01031 678-1676); assay: ELISA, C5-coated wells
Chain of human complement protein C5 (P01031 19-673 limits assumed, chain 1 of 2): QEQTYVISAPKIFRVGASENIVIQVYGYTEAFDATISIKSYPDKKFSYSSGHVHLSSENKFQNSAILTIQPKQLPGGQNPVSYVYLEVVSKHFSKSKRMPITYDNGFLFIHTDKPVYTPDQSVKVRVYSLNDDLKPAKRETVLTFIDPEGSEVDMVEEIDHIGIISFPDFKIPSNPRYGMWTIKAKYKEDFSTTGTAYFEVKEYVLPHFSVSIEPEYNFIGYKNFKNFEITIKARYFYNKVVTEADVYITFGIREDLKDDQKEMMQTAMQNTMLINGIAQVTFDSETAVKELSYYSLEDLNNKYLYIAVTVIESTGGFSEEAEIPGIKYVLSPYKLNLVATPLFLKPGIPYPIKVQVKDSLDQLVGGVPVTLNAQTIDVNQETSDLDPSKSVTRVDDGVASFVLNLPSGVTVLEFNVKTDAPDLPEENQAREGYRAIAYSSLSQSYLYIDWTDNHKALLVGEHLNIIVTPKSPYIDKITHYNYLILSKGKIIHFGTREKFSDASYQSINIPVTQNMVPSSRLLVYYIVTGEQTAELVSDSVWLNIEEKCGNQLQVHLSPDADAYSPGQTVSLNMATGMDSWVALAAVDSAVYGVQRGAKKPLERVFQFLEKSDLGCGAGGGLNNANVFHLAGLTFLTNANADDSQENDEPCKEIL
Chain of human complement protein C5 (P01031 678-1676 limits assumed, chain 2 of 2): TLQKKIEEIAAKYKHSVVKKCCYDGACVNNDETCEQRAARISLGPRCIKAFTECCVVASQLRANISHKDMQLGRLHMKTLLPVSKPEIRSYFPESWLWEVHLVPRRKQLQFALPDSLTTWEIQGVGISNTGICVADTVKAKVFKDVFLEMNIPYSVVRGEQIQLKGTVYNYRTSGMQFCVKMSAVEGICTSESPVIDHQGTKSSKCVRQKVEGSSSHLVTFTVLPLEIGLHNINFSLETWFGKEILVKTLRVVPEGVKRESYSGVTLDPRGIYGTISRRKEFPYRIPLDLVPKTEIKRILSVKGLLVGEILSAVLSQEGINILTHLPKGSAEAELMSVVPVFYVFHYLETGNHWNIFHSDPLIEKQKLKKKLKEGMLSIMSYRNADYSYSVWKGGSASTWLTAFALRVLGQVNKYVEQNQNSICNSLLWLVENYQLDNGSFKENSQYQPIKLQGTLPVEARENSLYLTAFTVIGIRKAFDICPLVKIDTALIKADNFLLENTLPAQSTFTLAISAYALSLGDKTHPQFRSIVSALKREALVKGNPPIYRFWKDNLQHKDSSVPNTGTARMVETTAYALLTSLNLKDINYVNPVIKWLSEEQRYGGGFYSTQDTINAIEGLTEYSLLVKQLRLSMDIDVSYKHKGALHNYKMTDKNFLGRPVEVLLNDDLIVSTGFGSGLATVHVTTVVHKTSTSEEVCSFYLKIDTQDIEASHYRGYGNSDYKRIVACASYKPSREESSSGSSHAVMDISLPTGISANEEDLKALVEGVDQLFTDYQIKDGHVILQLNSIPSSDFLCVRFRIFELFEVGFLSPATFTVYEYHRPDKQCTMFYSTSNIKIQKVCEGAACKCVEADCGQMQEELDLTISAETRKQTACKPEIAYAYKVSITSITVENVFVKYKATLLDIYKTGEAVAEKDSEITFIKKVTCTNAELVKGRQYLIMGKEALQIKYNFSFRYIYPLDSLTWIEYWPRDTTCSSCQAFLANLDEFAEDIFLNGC
Description: The 20 purified antibodies were tested by ELISA for their abilities to bind human complement proteins C5, C5b6 and C6. The antibodies were divided into two sets for this analysis. MoC601 HuG4K and HuG4K isotype controls were included alongside each set, as was C601HFKC4 HuG4K (aka 3713) expression supernatant from the original transfection as an additional positive control. In addition, three humanized antibodies (C601HFKC4 HuG4K, C601HPKI HuG4K and C601HPKC4 HuG4K) were included within both sets to allow better comparison between the plates. The antibodies all show specificity for C6 with no detectable binding to C5. All humanized antibodies bind to C6 and to C6 as part of the C5b6 complex. The lower plateaus of the C5b6 complex binding curves are explained by less C6 protein being available for binding when wells are coated with C5b6 complex as opposed to C6 alone. […] The EC₅₀ values are included in the figure but slightly different plateau levels observed for the antibodies are influencing the apparent EC₅₀ values. However, it was noted that the EC₅₀ values tended to be lower on the plates for the second set of antibodies. For this reason, a subset of the 20 antibodies was tested in a further ELISA for binding to C6 and C5b6 complex.
as §9

[9] = target: T1, human complement protein C6; assay: C6-binding ELISA, A650 nm; sample 'mouse serum' (28 days at 37 C)
Description: as §1, §2

[10] = target: T1, human complement protein C6; assay: SPR (Biacore 8K), IgG on protein G chip, C6 0.03-25 nM 3-fold series, 1:1 fit
Description: as §8, §9

[11] = target: T1, human complement protein C6; assay: C6-binding ELISA, A650 nm; sample 'C6-depleted human serum' (28 days at 37 C)
Description: as §1, §2

[12] = target: T1, human complement protein C6; assay: C6-binding ELISA, A650 nm; sample 'C6-depleted human serum' (28 days at 37 C) [cont.) D]
Description: as §3, §4

[13] = target: T1, human complement protein C6; assay: C6-binding ELISA, A650 nm; sample 'PBS' (28 days at 37 C) [cont.) D]
Description: as §1, §2

[14] = target: T1, human complement protein C6; assay: C6-binding ELISA, A650 nm; sample 'mouse serum' (28 days at 37 C) [cont.) D]
Description: as §3, §4

[15] = target: T1, human complement protein C6; assay: C6-binding ELISA, A650 nm; sample 'human serun' (human serum, 28 days at 37 C) [cont.) D]
Description: as §3, §4

[16] = target: T1, human complement protein C6; assay: C6-binding ELISA, A650 nm; sample 'PBS, non-incubated' (kept at 4 C) [cont.) D]
Description: as §5, §6, §7

T1 sequence (P13671 22-934 limits assumed): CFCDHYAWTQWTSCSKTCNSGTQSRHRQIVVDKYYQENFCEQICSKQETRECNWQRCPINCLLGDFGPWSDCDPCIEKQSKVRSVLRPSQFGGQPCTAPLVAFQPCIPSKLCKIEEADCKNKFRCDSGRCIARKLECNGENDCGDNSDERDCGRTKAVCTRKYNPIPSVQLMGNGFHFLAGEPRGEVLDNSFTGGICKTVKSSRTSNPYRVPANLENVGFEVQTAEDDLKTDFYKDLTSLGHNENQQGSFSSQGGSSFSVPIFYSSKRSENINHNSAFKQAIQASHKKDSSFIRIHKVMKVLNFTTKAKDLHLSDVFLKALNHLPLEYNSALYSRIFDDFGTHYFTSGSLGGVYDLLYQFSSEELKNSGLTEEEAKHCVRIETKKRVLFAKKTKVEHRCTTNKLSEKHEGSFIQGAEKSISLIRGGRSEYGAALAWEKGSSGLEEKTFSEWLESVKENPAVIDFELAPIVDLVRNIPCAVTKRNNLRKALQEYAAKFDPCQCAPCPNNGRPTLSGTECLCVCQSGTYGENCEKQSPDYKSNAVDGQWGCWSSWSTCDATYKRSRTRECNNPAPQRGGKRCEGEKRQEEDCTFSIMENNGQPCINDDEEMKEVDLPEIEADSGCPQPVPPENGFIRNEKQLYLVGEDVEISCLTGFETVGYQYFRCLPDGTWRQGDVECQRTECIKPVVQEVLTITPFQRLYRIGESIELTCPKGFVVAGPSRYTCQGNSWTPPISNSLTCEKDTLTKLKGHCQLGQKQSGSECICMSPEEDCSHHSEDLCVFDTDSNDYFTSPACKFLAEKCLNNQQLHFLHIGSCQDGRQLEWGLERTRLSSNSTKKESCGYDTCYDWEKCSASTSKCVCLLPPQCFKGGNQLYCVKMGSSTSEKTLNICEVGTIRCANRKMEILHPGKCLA

EC50 [1]: 480 pM
B1: MoC601 HuG1KFab (Fab, V domains shown)
VH: QVQLQQSGAELVKPGASVKISCKASGYAFSDYWMNWVKQRPGKGLEWIGQIYPGDDDTNYNGKFKGKATLTADKSSSTAYMQLSSLTSEDSAVYFCAREGYYGYTYVEYFDVWGTGTTVTVSS
VL: QIVLTQSPAIMSVSPGEKVTLTCSASSSVSYMHWYQQKSGTSPKRWIYDTSKLASGVPARFSGSGSGTSYSLTISSMEAEDAATYYCQQWTSNPLTFGAGTKLELRR
notes: also called chimeric Fab; Fab molecule

EC50 [2]: 200 pM
EC50 [3]: 220 pM
EC50 [4]: 220 pM
EC50 [5]: 200 pM
Kd [6]: 348 pM
Kd [7]: 279 pM
koff [7]: 0.000317 s⁻¹
kon [7]: 1.14e+06 M⁻¹ s⁻¹
binding result [8]: no binding
EC50 [9]: 180 pM
Kd [10]: 348 pM
koff [10]: 0.000308 s⁻¹
kon [10]: 890000 M⁻¹ s⁻¹
EC50 [11]: 190 pM
B2: C601HFKI HuG4K (antibody, human IgG4 S228P, kappa)
heavy: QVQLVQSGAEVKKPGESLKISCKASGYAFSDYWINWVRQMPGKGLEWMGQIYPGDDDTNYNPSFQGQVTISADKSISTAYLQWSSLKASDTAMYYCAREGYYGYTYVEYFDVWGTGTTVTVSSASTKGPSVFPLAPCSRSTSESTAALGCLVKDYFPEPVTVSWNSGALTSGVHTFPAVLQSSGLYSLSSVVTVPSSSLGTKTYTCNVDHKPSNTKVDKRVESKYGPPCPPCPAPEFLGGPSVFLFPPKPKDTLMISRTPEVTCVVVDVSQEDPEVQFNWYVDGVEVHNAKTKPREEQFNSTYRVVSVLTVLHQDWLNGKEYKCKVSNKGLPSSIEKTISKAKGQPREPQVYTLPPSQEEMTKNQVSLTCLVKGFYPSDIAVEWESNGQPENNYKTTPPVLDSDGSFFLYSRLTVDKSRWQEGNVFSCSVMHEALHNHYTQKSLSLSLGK
light: EIVLTQSPATLSLSPGERATLSCRASSSVSYLHWYQQKPGQSPRLWIYDTSKRATGIPARFSGSGSGTDYTLTISSLEPEDFAVYYCQQWTSNPLTFGQGTKLEIKRTVAAPSVFIFPPSDEQLKSGTASVVCLLNNFYPREAKVQWKVDNALQSGNSQESVTEQDSKDSTYSLSSTLTLSKADYEKHKVYACEVTHQGLSSPVTKSFNRGEC

EC50 [4]: 170 pM
EC50 [12]: 190 pM
EC50 [13]: 170 pM
Kd [6]: 433 pM
EC50 [14]: 150 pM
Kd [7]: 295 pM
koff [7]: 0.000361 s⁻¹
kon [7]: 1.23e+06 M⁻¹ s⁻¹
binding result [8]: no binding
EC50 [15]: 190 pM
Kd [10]: 433 pM
koff [10]: 0.000445 s⁻¹
kon [10]: 1.03e+06 M⁻¹ s⁻¹
EC50 [16]: 140 pM
B3: C601HPKI HuG4K (antibody, human IgG4 S228P, kappa)
heavy: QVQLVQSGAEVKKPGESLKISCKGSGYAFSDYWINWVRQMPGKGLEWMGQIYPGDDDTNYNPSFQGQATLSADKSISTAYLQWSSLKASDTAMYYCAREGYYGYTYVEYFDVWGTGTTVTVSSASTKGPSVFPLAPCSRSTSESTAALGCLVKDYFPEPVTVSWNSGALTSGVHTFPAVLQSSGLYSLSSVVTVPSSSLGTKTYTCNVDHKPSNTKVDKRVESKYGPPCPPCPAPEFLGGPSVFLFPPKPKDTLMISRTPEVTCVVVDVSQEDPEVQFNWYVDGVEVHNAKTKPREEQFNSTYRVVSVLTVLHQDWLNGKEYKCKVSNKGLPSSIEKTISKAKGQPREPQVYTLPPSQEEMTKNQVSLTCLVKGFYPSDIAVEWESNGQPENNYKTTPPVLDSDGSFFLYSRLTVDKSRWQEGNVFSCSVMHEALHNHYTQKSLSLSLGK
light: B2 light
